Source: patent US20170258870

Molecular target: myc-tagged LIMP-2

B1: wild-type β-glucocerebrosidase (GC), human, overexpressed in cells (protein)
chain: ARPCIPKSFGYSSVVCVCNATYCDSFDPPTFPALGTFSRYESTRSGRRMELSMGPIQANHTGTGLLLTLQPEQKFQKVKGFGGAMTDAAALNILALSPPAQNLLLKSYFSEEGIGYNIIRVPMASCDFSIRTYTYADTPDDFQLHNFSLPEEDTKLKIPLIHRALQLAQRPVSLLASPWTSPTWLKTNGAVNGKGSLKGQPGDIYHQTWARYFVKFLDAYAEHKLQFWAVTAENEPSAGLLSGYPFQCLGFTPEHQRDFIARDLGPTLANSTHHNVRLLMLDDQRLLLPHWAKVVLTDPEAAKYVHGIAVHWYLDFLAPAKATLGETHRLFPNTMLFASEACVGSKFWEQSVRLGSWDRGMQYSHSIITNLLYHVVGWTDWNLALNPEGGPNWVRNFVDSPIIVDITKDTFYKQPMFYHLGHFSKFIPEGSQRVGLVASQKNDLDAVALMHPDGSAVVVVLNRSSKDVPLTIKDPAVGFLETISPGYSIHTYLWRRQ
For B1, the “GC enzymatic activity on co-expression with LIMP-2” value was “Upon co-expression of wild-type GC and LIMP-2 we observed a significant increase in GC activity”.
